Here are results for 1 molecule from publication PMC8402611, “Generation and Characterization of a Spike Glycoprotein Domain A-Specific Neutralizing Single-Chain Variable Fragment against Porcine Epidemic Diarrhea Virus” (Vaccines, 2021).

Assay [1] has as its target T1, S protein of PEDV-CV777 (G1 PEDV) (Porcine epidemic diarrhea virus, CV777 …, UniProt H2DFZ6).
T1 construct: spike (S) protein of porcine epidemic diarrhea virus strain CV777; stood on infected cells and on purified virions; The antigen in the assays was the infected cell or the whole virion; also called G1 PEDV S protein; historic vaccine strain; source: PEDV-CV777 in infected Vero cells (acetone-fixed); purified PEDV-CV777 virions
As to the kind of experiment: immunostaining of cells or tissue; ICC (HRP/DAB) and IFA (FITC) on PEDV-infected Vero cells fixed with 80% acetone; scFv 5 ug/mL in PBS for 1 h, detected by anti-V5 antibody; PBS blank as background control. The conditions noted are these: one partner purified.

In assay [2] the target is T2, ectodomain of the S protein of PEDV (GeneBank no. HC070225-S) (Porcine epidemic diarrhea virus, …, UniProt A0A1Y0DDF5).
T2 construct: spike (S) glycoprotein of porcine epidemic diarrhea virus, ectodomain; also called PEDV S protein; purified trimeric PEDV S glycoprotein; source: Expi293F cells, secreted, purified from the culture medium
As to the kind of experiment: retention on a 100 kDa MWCO spin column (called immunoprecipitation pull-down assay); 25 pmol S protein with 125 pmol scFv, 37 C for 3 h; 100 kDa MWCO filtration, 10 washes with dPBS; SDS-PAGE with Coomassie; control of scFv alone. The conditions noted are these: both partners purified.

T1 sequence (Q91AV1 26-1383): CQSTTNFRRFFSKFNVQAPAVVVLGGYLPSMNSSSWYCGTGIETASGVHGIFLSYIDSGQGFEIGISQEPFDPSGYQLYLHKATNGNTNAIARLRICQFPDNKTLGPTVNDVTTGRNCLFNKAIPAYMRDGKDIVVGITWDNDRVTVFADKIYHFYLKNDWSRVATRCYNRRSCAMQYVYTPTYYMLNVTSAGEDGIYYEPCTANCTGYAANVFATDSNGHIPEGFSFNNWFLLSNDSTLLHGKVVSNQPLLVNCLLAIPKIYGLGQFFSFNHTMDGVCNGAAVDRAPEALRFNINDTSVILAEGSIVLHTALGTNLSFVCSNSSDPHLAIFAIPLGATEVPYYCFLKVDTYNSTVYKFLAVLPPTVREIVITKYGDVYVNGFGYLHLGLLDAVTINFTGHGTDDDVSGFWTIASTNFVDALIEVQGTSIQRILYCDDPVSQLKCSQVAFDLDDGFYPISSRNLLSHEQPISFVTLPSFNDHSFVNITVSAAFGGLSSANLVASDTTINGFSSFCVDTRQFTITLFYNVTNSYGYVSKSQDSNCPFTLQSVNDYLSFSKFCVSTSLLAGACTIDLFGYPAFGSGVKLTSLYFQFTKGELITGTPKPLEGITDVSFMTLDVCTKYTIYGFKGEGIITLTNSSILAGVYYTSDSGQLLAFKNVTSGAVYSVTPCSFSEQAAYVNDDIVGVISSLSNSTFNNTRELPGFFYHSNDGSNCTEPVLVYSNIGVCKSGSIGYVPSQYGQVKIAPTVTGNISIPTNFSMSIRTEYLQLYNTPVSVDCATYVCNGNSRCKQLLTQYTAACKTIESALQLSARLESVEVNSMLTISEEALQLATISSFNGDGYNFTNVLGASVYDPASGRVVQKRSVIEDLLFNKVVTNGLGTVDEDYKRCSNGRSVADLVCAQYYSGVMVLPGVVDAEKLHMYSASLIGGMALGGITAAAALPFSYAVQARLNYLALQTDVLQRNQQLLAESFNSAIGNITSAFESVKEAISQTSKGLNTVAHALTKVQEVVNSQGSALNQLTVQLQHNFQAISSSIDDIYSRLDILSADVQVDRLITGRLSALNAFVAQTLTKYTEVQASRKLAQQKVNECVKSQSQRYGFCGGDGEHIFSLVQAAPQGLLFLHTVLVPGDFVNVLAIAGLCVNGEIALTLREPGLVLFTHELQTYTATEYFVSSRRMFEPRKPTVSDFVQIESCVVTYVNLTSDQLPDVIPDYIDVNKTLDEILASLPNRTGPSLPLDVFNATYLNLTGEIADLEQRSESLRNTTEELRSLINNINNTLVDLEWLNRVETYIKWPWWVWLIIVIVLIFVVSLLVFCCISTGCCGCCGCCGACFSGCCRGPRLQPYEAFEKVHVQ

B1: recombinant scFv of the PEDV S1^A-specific neutralizing monoclonal antibody E10E-1-10 (scFv, V domains shown)
VH: QVQLQQSGAELARPGTSVKMSCKASGYTFTNYMMHWIKQRPGQGLEWIGYINPSTGYTNYNQKFKDKATLTADKSSSTAYVQLNILTSEDSAVYYCATSTLITGDYWGQGTTLTVSS
VL: NIVLTQSPKSMSMSVGERVTLSCKASENVGTYVSWYQQKPKQSPKLLIYGTFNRYTGVPDRFTGSGSATDFTLTISSVQAEDLADYHCGQSYNYPFTFGSGTKLEIK
notes: (G4S)3 linker; About 30 kDa; The order VL, linker, VH follows the order in which the methods name the regions; also called E10E-1-10 scFv; anti-PEDV S1^A scFv; source: Expi293F cells, transfected, secreted; purified from the supernatant (IMAC on cobalt resin, SEC on Superdex 75 Increase)
As for B1, the binding result in assay [1] and in assay [2] was “binds” each time.
